Measured values: patent USRE49099 (Bayer, dated 2022)
Substitutions are numbered along the chain they refer to.

B1: Hu1573-12 (antibody, V domains shown)
VH: EVQLVESGGGLVQPGGSLRLSCAASGFTFSNYYLNWVRQAPGKGLEWVADIRLKSNNYEKHYAESVKGRFTISRDDSKNSVYLQMNSLKTEDTAVYYCIREGDYFDYWGQGTTVTVSS
VL: DIVMTQTPLSLSVTPGQPASISCRASESVDSFGATFMHWYLQKPGQPPQLLIYLASNLESGVPDRFSGSGSGTDFTLKISRVEAEDVGVYYCQQNNEDPYTFGQGTKLEIKR
notes: Humanized IgG, human gamma 1 / kappa constant regions by vectors pCP-hCg1 and pCP-hck; also called H1573VH.1E + H1573Vk.2
B2: Hu1573-1 (antibody, V domains shown)
VH: B1 VH with A49G, V81L, I99A
VL: B1 VL with M4L, G72R
notes: Humanized IgG, human gamma 1 / kappa constant regions by vectors pCP-hCg1 and pCP-hck; also called H1573VH.1 + H1573Vk.2C
B3: Hu1573-4 (antibody, V domains shown)
VH: B1 VH with A49G
VL: B1 VL with M4L
notes: Humanized IgG, human gamma 1 / kappa constant regions by vectors pCP-hCg1 and pCP-hck; also called H1573VH.1B + H1573Vk.2A
B4: Hu1573-5 (antibody, V domains shown)
VH: B1 VH with A49G
VL: B1 VL with G72R
notes: Humanized IgG, human gamma 1 / kappa constant regions by vectors pCP-hCg1 and pCP-hck; also called H1573VH.1B + H1573Vk.2B
B5: Hu1573-16 (antibody, V domains shown)
VH: B1 VH with N79S
VL: B1 VL with M4L
notes: Humanized IgG, human gamma 1 / kappa constant regions by vectors pCP-hCg1 and pCP-hck; also called H1573VH.1F + H1573Vk.2A
B6: Hu1573-8 (antibody, V domains shown)
VH: B1 VH with V81L
VL: B1 VL with G72R
notes: Humanized IgG, human gamma 1 / kappa constant regions by vectors pCP-hCg1 and pCP-hck; also called H1573VH.1C + H1573Vk.2B
B7: Hu1573-15 (antibody, V domains shown)
VH: B1 VH with N79S
VL: B1 VL
notes: Humanized IgG, human gamma 1 / kappa constant regions by vectors pCP-hCg1 and pCP-hck; also called H1573VH.1F + H1573Vk.2
B8: Hu1573-17 (antibody, V domains shown)
VH: B1 VH with N79S
VL: B1 VL with G72R
notes: Humanized IgG, human gamma 1 / kappa constant regions by vectors pCP-hCg1 and pCP-hck; also called H1573VH.1F + H1573Vk.2B
B9: Hu1573-9 (antibody, V domains shown)
VH: B1 VH with A49G, N79S, V81L
VL: B1 VL
notes: Humanized IgG, human gamma 1 / kappa constant regions by vectors pCP-hCg1 and pCP-hck; also called H1573VH.1D + H1573Vk.2
B10: Hu1573-3 (antibody, V domains shown)
VH: B1 VH with A49G
VL: B1 VL
notes: Humanized IgG, human gamma 1 / kappa constant regions by vectors pCP-hCg1 and pCP-hck; also called H1573VH.1B + H1573Vk.2
B11: Hu1573-2 (antibody, V domains shown)
VH: B1 VH with A49G, V81L
VL: B1 VL with M4L, G72R
notes: Humanized IgG, human gamma 1 / kappa constant regions by vectors pCP-hCg1 and pCP-hck; also called H1573VH.1A + H1573Vk.2C
B12: Hu1573-10 (antibody, V domains shown)
VH: B1 VH with A49G, N79S, V81L
VL: B1 VL with M4L
notes: Humanized IgG, human gamma 1 / kappa constant regions by vectors pCP-hCg1 and pCP-hck; also called H1573VH.1D + H1573Vk.2A
B13: Hu1573-7 (antibody, V domains shown)
VH: B1 VH with V81L
VL: B1 VL with M4L
notes: Humanized IgG, human gamma 1 / kappa constant regions by vectors pCP-hCg1 and pCP-hck; also called H1573VH.1C + H1573Vk.2A
B14: Hu1573-11 (antibody, V domains shown)
VH: B1 VH with A49G, N79S, V81L
VL: B1 VL with G72R
notes: Humanized IgG, human gamma 1 / kappa constant regions by vectors pCP-hCg1 and pCP-hck; also called H1573VH.1D + H1573Vk.2B
B15: Hu1573-6 (antibody, V domains shown)
VH: B1 VH with V81L
VL: B1 VL
notes: Humanized IgG, human gamma 1 / kappa constant regions by vectors pCP-hCg1 and pCP-hck; also called H1573VH.1C + H1573Vk.2
B16: Hu1573-13 (antibody, V domains shown)
VH: B1 VH
VL: B1 VL with M4L
notes: Humanized IgG, human gamma 1 / kappa constant regions by vectors pCP-hCg1 and pCP-hck; also called H1573VH.1E + H1573Vk.2A
B17: Hu1573-14 (antibody, V domains shown)
VH: B1 VH
VL: B1 VL with G72R
notes: Humanized IgG, human gamma 1 / kappa constant regions by vectors pCP-hCg1 and pCP-hck; also called H1573VH.1E + H1573Vk.2B
B18: 1573 Chimeric (antibody, V domains shown)
VH: EVKLEESGGGLVQPGGSMKLSCVASGFTFSNYYLNWVRQSPEKGLEWVADIRLKSNNYEKHYAESVKGRFTISRDDSKSSVYLQMNNLRAEDTGIYYCIREGDYFDYWGQGTTLTVSS
VL: NIVLTQSPASLAVSLGQRATISCRASESVDSFGATFMHWYQQKPGQPPKLLIYLASNLESGVPARFSGSGSRTDFTLTIDPVEADDAATYYCQQNNEDPYTFGGGTKLEIKR
notes: IgG; also called chimera 1573; 1573VH (chimeric) + 1573Vk (chimeric)
B19: 1573 mouse (antibody, V domains shown)
VH: B18 VH
VL: B18 VL
notes: Parental murine monoclonal antibody; also called mouse aPC monoclonal antibody 1573; HAPC1573

target: T1, human activated protein C (human, UniProt P04070 43-197; P04070 212-461); assay: ELISA, coated antigen
T1 construct: also called human aPC; human APC

Row | EC50 [nM] | Binder
1 | 0.339 | B1
2 | 0.369 | B2
3 | 0.583 | B3
4 | 0.552 | B4
5 | 0.233 | B5
6 | 0.697 | B6
7 | 0.288 | B7
8 | 0.627 | B8
9 | 0.313 | B9
10 | 0.592 | B10
11 | 0.265 | B11
12 | 0.575 | B12
13 | 0.445 | B13
14 | 0.687 | B14
15 | 0.274 | B15
16 | 0.236 | B16
17 | 0.225 | B17
18 | 0.334 | B18

target: T2, cyno activated protein C (cyno (monkey)); assay: ELISA, coated antigen
T2 construct: also called cyno aPC; cyno APC

Row | EC50 [nM] | Binder
19 | 0.642 | B1
20 | 0.865 | B2
21 | 0.904 | B3
22 | 1.03 | B4
23 | 1.23 | B5
24 | 0.713 | B6
25 | 0.889 | B7
26 | 1.21 | B8
27 | 0.986 | B9
28 | 0.872 | B10
29 | 0.774 | B11
30 | 0.68 | B12
31 | 0.853 | B13
32 | 1.47 | B14
33 | 0.9 | B15
34 | 0.804 | B16
35 | 0.984 | B17
36 | 0.83 | B18

target: T3, human Protein C (human, UniProt P04070 43-461); assay: ELISA, coated antigen
T3 construct: Zymogen used as negative control in the ELISA; also called human PC; hPC

Row | binding result | Binder
37 | no binding (tested: 20 nM) | B1
38 | no binding (tested: 20 nM) | B2
39 | no binding (tested: 20 nM) | B3
40 | no binding (tested: 20 nM) | B4
41 | no binding (tested: 20 nM) | B5
42 | no binding (tested: 20 nM) | B6
43 | no binding (tested: 20 nM) | B7
44 | no binding (tested: 20 nM) | B8
45 | no binding (tested: 20 nM) | B9
46 | no binding (tested: 20 nM) | B10
47 | no binding (tested: 20 nM) | B11
48 | no binding (tested: 20 nM) | B12
49 | no binding (tested: 20 nM) | B13
50 | no binding (tested: 20 nM) | B14
51 | no binding (tested: 20 nM) | B15
52 | no binding (tested: 20 nM) | B16
53 | no binding (tested: 20 nM) | B17
54 | no binding (tested: 20 nM) | B18

target: T1, human activated protein C; assay: SPR (Biacore)

Row | Kd [nM] | Binder
55 | < 5 | B2
56 | < 5 | B4
57 | < 5 | B6
58 | < 5 | B11
59 | < 5 | B12

target: T1, human activated protein C; assay: SPR (Biacore), 1:1 binding model

Row | Kd [nM] | koff [s⁻¹] | kon [M⁻¹ s⁻¹] | Binder
60 | 6.03 | 0.00844 | 1.4e+06 | B1
61 | 3.8 | 0.00554 | 1.46e+06 | B2
62 | 5.1 | 0.00772 | 1.52e+06 | B3
63 | 4.16 | 0.0064 | 1.54e+06 | B4
64 | 4.52 | 0.00643 | 1.42e+06 | B5
65 | 4.03 | 0.006 | 1.49e+06 | B6
66 | 6.15 | 0.00845 | 1.37e+06 | B7
67 | 5.75 | 0.00833 | 1.45e+06 | B8
68 | 5.63 | 0.00815 | 1.45e+06 | B9
69 | 5.7 | 0.00818 | 1.44e+06 | B10
70 | 4.61 | 0.00624 | 1.35e+06 | B11
71 | 4.38 | 0.00636 | 1.45e+06 | B12
72 | 6.33 | 0.00857 | 1.36e+06 | B13
73 | 6.49 | 0.00896 | 1.38e+06 | B14
74 | 5.94 | 0.00848 | 1.43e+06 | B15
75 | 4.69 | 0.00655 | 1.4e+06 | B16
76 | 6.13 | 0.00856 | 1.4e+06 | B17
77 | 3.49 | 0.00811 | 2.32e+06 | B18
78 | 5.49 | 0.0052 | 948000 | B19

target: T2, cyno activated protein C; assay: SPR (Biacore), 1:1 binding model

Row | Kd [nM] | koff [s⁻¹] | kon [M⁻¹ s⁻¹] | Binder
79 | 16.1 | 0.0054 | 337000 | B1
80 | 16.7 | 0.00402 | 240000 | B2
81 | 14.2 | 0.0105 | 743000 | B3
82 | 14.5 | 0.00293 | 202000 | B4
83 | 15.8 | 0.00373 | 236000 | B5
84 | 12.3 | 0.00447 | 363000 | B6
85 | 20.2 | 0.00452 | 225000 | B7
86 | 15.6 | 0.0042 | 269000 | B8
87 | 15.2 | 0.00724 | 475000 | B9
88 | 14.2 | 0.0105 | 743000 | B10
89 | 16.4 | 0.00384 | 235000 | B11
90 | 11 | 0.00479 | 434000 | B12
91 | 18.5 | 0.00471 | 255000 | B13
92 | 15.6 | 0.0042 | 269000 | B14
93 | 11.3 | 0.00707 | 627000 | B15
94 | 15 | 0.00343 | 229000 | B16
95 | 17.6 | 0.00524 | 299000 | B17
96 | 13.8 | 0.00766 | 555000 | B18
97 | 21.1 | 0.00725 | 344000 | B19
